Test results published in patent US8394929B2, “Nogo receptor-mediated blockade of axonal growth” (Yale University, priority 2000, dated 2013).

How the values were obtained:
[1] = system: Sema3A-induced growth cone collapse; experiment: Sema3A-induced growth cone collapse in chick DRG cultures; assay type: cell-based
Text: The Nogo-66 receptor protein is necessary for Nogo-66 action and not simply a binding site with a function unrelated to inhibition of axonal outgrowth. A first prediction is that phosphoinositol specific-Phospholipase C (PI-PLC) treatment to remove glycophosphatidylinositol (GPI)-linked proteins from the neuronal surface will render neurons insensitive to Nogo-66. This prediction holds true for chick E13 dorsal root ganglion neurons; PI-PLC treatment abolishes both AP-Nogo binding and GST-Nogo-66-induced growth cone collapse (FIG. 10a-c). As a control, Sema3A responses in the parallel cultures are not altered by PI-PLC treatment.
For further testing, a synthetic peptide containing amino acid residues #1055-1094 of hNgR, acetylated at the […] was used [hereinafter “Peptide 140”]. […] Antagonist of Nogo-66 inhibitory activity may act by competing for, and thereby blocking NgR binding sites. To determine the antagonistic activity of Peptide 140, the above synthetic form of the peptide was added to E12 chick DRG explant cultures approximately 10 min before application of various concentrations of GST-NogoA (residues #1055-1120), TPA or Sema3A. 30 min later, cultures were fixed and growth cone collapse was assessed following staining with rhodamine-phalloidin.

NgRΔCT = biological target: T1, NgRΔCT (Mus musculus, UniProt Q99PI8); experiment: AP-hNogo-A (1055-1120) binding to COS-7 cells transfected with NgRΔCT
T1 construct: encodes residues 26 to 305 and 443 to473 of mNgR; vector secretion signal (pSecTag2) (N); 6xHis (C); expressed in transfected cells; host or cells: COS-7
T1 sequence (Q99PI8 with tags, fused parts or gaps): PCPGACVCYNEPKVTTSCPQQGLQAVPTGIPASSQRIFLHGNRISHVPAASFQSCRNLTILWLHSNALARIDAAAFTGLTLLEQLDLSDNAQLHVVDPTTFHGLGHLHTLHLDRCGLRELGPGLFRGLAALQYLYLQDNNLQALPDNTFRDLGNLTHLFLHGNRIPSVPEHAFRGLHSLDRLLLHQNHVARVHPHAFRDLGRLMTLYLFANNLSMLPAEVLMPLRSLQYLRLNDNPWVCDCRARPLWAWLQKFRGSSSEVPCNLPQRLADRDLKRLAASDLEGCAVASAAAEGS
Text: The NgRΔCT contruct encodes residues 26 to 305 and 443 to473 of mNgR, thereby including the LRR and GPI regions of mNgR. Primers MycNgR ([…]) and 2NgRt313 ([…]) were used to amplify a sequence from the wtNgR-pSecTag2Hygro plasmid. Primers TM/GPI5 (5′-[…]-3′) and NgR3X (above) were used to amplify a sequence from the wtNgR-pSecTag2Hygro plasmid. The amplified sequences were ligated together at the NotI site and then ligated into the BamHI/XhoI sites of pSecTag2.
To determine whether mNgR or mNgR deletion mutants bound to hNogo-A (1055-1120), wtNgR or mNgR deletion mutants were transfected into COS-7 cells. Forty-eight hours after the transfection, the transfected COS-7 cells were washed with hanks balanced salt solution containing 20 mM sodium HEPES, pH 7.05, and 1 mg/ml bovine serum albumin (BSA) [hereinafter “HBH”]. Cells were then incubated for 2 hours at 23° C. with a conditioned medium enriched with purified AP-hNogo-A (1055-1120) diluted in HBH. AP-fusion protein was detected as previously described for AP-Sema3A (Takahashi et al., Nature Neurosci. 1:487-493, 1998).

[2] = system: NGF-differentiated PC12 cells; experiment: Axon outgrowth from NGF-differentiated PC12 cells; assay type: cell-based
Experimental: For all experiments involving cell culture, the following methods were employed. The culture of embryonic chick E10 and E12 dorsal root ganglion explants and dissociated neurons utilized methods described for E7 dorsal root ganglion cultures (Takahashi et al., (1998) Nature Neurosci. 1, 487-493; Takahashi et al., (1999) Cell 99, 59-69; Goshima et al., (1995) Nature 376, 509-514; Jin & Strittmatter, (1997) J. Neurosci. 7, 6256-6263). NGF-differentiated PC12 cells were cultured as described (Strittmatter et al., (1994) J. Neurosci. 14, 2327-2338). Embryonic spinal cord explants (rat E10 or chick E5) were cultured for 7-14 days in the presence of PDGF-AA to induce differentiation of some cells into mature oligodendrocytes (Vartanian et al., (1999) Proc. Natl. Acad. Sci. USA 96, 731-735). The procedure for growth cone collapse assays is identical to that for analysis of Sema3A-induced growth cone collapse (Takahashi et al., (1998) Nature Neurosci. 1, 487-493; Takahashi et al., (1999) Cell 99, 59-69; Goshima et al., (1995) Nature 376, 509-514; Jin & Strittmatter, (1997) J. Neurosci. 17, 6256-6263). The method for analysis of total neurite outgrowth has also been described (Goshima et al., (1995) Nature 376, 509-514; Jin & Strittmatter, (1997) J. Neurosci. 17, 6256-6263; Strittmatter et al., (1994) J. Neurosci. 14, 2327-2338). […]

[3] = system: chick E7 retinal ganglion cells; experiment: Growth cone collapse in uninfected chick E7 retinal ganglion cells; assay type: cell-based; conditions: neurons lacking the Nogo-66 receptor
Text: Both dorsal root ganglion and retinal neurons from E7 chick embryos were examined. The Nogo responses in the dorsal root ganglion neurons from this developmental stage are weak but slight responses can be detected in some cultures (data not shown).
For some receptor systems, such soluble receptor ligand complexes can block signaling by creating an ineffective interaction. For example, the soluble ectodomain of Trk serves to block neurotrophin signaling and has been extensively used for this purpose (Shelton et al., (1995) J. Neurosci. 15, 477-491). Alternatively, the Nogo-66/NgR-ecto soluble complex may bind to and stimulate the presumed second transmembrane NgR subunit. There is precedence for this type of effect from studies of GDNF family receptors (Cacalano et al., (1998) Neuron 21, 53-62).

Question: “Peptide 140: synthetic peptide of amino acids #1055-1094 of the human NogoA protein, acetylated and amidated at the termini (Ac-RIYKGVIQAIQKSDEGHPFRAYLESEVAISEELVQKYSNS-NH2; UniProt Q9NQC3 1055-1094, looked up, fragment)” was tested. Which “effect on Sema3A-induced growth cone collapse (in words)” value [1] did it give?
Answer: no significant reduction in collapse

B1: AP-Nogo: fusion protein of His6 tag, placental alkaline phosphatase (AP) and the 66 amino acid active domain of Nogo (protein)
chain: HHHHHHIIPVEEENPDFWNREAAEALGAAKKLQPAQTAAKNLIIFLGDGMGVSTVTAARILKGQKKDKLGPEIPLAMDRFPYVALSKTYNVDKHVPDSGATATAYLCGVKGNFQTIGLSAAARFNQCNTTRGNEVISVMNRAKKAGKSVGVVTTTRVQHASPAGTYAHTVNRNWYSDADVPASARQEGCQDIATQLISNMDIDVILGGGRKYMFRMGTPDPEYPDDYSQGGTRLDGKNLVQEWLAKRQGARYVWNRTELMQASLDPSVTHLMGLFEPGDMKYEIHRDSTLDPSLMEMTEAALRLLSRNPRGFFLFVEGGRIDHGHHESRAYRALTETIMFDDAIERAGQLTSEEDTLSLVTADHSHVFSFGGYPLRGSSIFGLAPGKARDRKAYTVLLYGNGPGYVLKDGARPDVTESESGSPEYRQQSAVPLDEETHAGEDVAVFARGPQAHLVHGVQEQTFIAHVMAFAACLEPYTACDLAPPAGTTDAAHPGRIYKGVIQAIQKSDEGHPFRAYLESEVAISEELVQKYSNSALGHVNCTIKELRRLFLVDDLVDSLK
Question: B1 was tested. Which “binding (in words)” value (NgRΔCT) did it give?
Answer: bound

B2: GST-Nogo: GST fusion protein of the 66 amino acid lumenal-extracellular fragment of Nogo-A, expressed in E. coli (protein)
chain: RIYKGVIQAIQKSDEGHPFRAYLESEVAISEELVQKYSNSALGHVNCTIKELRRLFLVDDLVDSLK
modifications: also: GST fusion protein
notes: GST fusion protein of the 66 amino acid lumenal-extracellular fragment of Nogo-A, expressed in E. coli
Question: Which “axonal outgrowth (in words)” value ([2]; bound to substrate surfaces) does the source give for B2 here?
Answer: reduced to undetectable levels

Question: What about the “axon outgrowth (in words)” value ([2]; soluble, nM concentrations) of the same molecule?
Answer: blocked

Question: And the “growth cone collapse (in words)” value [3]?
Answer: uniformly insensitive
